Experimental data from patent US20060171935A1, “Protecting cell therapy for neurological disorders including Parkinson's disease” (priority 2005, published 2006).

T1: citrate synthase (CS) (Sus scrofa, UniProt P00889)
T1 construct: purchased Sigma
T1 sequence (P00889 28-464): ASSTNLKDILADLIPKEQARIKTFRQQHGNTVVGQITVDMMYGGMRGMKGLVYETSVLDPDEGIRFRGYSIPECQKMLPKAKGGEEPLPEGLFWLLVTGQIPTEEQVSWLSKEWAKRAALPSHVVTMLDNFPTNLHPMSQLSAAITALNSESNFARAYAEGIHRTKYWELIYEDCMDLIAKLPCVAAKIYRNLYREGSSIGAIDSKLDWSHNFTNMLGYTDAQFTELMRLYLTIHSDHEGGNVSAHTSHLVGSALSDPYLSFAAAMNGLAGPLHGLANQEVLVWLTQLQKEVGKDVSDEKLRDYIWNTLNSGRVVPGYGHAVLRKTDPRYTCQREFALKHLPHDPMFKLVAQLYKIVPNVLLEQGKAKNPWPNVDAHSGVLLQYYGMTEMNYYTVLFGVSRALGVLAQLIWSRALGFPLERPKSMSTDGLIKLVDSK


Key:
[1] = tested on: DJ-1 deficient dopamine neurons; test: 6-OHDA sensitivity of ES-derived dopamine neurons, 3H-dopamine uptake; format: cell-based, murine; conditions: 9 DIV, 72 h exposure
Text: (A) The SDIA coculture method. DJ-1 knockout or control heterozygous ES cells are cocultured with mouse stromal cells (MS5) in the absence of serum and leukemia inhibitory factor for 18 DIV. (B) DN production was quantified at 18 DIV by 3H-dopamine uptake assay. DJ-1-deficient ES cell cultures were defective relative to heterozygous control cultures. (C-D) Neuron production was quantified by immunohistochemical analysis as a percent of TuJ1-positive colonies that express TH (C) or GABA (D). Quantification of TH and GABA immunostaining was performed on all colonies in each of three independent wells. Colonies were scored as positive if any immunostained cells were present. *p≦0.05. […] (F) Kinetic analysis of DN differentiation in DJ-1-deficient cultures (clone 32, solid square) and heterozygous controls (open circle) as quantified by 3H-dopamine uptake assay. *p≦0.05. […] DNs were quantified by 3H-dopamine uptake assay. Data represent the means±SEM and were analyzed by ANOVA followed by Fisher's post-hoc test. *p≦0.05. […]
In Vivo Assays. […] Cell viability (as a percent of untreated control) was determined by MTT assay in triplicate (Fezoui et al. 2000). […] Reported values represent specific uptake from which non-specific uptake, determined in the presence of mazindol, was subtracted, and normalized for protein content (BCA kit, Pierce).

cerebellar granule cells = test: Parkin overexpression in kainate-treated cerebellar granule cells; format: cell-based, mice; conditions: 500 μM for 24 h
Description: Cerebellar granule neurons from P6 mice were purified and transfected essentially as described (Scheiffele et al., Neuroligin expressed in nonneuronal cells triggers presynaptic development in contacting axons. Cell, 101:657-69, 2000). Dissociated cortical neurons from E16.5 mice were prepared and cultured as described (Scheiffele et al., Neuroligin expressed in nonneuronal cells triggers presynaptic development in contacting axons. Cell, 101:657-69, 2000). Primary midbrain cultures were prepared from E13.5 mouse embryos, as described (Hynes et al., Induction of midbrain dopaminergic neurons by Sonic hedgehog. Neuron, 15:35-44, 1995). Cells were treated for 24 h with or without kainate (250 or 500 μM as indicated; Sigma) or MPP^+ (1 or 10 μM as indicated; Sigma), stained for 20 min with 0.5 μg/ml Hoechst 33342 (Sigma), and visualized by fluorescence microscopy. For granule cell assays, at least 100 cells in two 20× fields were scored in duplicate for GFP and/or Hoechst signal. […] Cells were washed, incubated for 1 h at room temperature with appropriately-labeled secondary antibodies, and visualized by fluorescence microscopy. For midbrain culture experiments, DAT-specific immunoreactivity (pixels), and cytoplasmic parkin and cyclin E immunoreactivity (mean pixel density), were quantified in triplicate, across nine fields of view, at 20× using Image software (Scion). […]

αSyn [2] = biological target: T2, αSyn (Homo sapiens, UniProt P37840); test: αSyn protofibril formation in vitro; format: biochemical; conditions: molar ratio 1:2 (DJ-1: αSyn), 2 h at 55° C.
Description: αSyn protofibril and fibril formation assays were performed essentially as described (Uversky et al.). Briefly, protofibrils were formed by incubation of 200 μM WT synuclein with 100 μM DJ-1 or control chaperone protein in PBS for 2 h at 55° C. Samples were mixed with SDS loading buffer and analyzed by SDS-PAGE and Western blotting using αSyn LB509 antibody (Zymed). Quantitation of high molecular weight αSyn was performed using NIH Image J. Integrated pixel intensity of high molecular weight synuclein for each sample was normalized to monomeric synuclein intensity. For fibril formation, αSyn and chaperone proteins (as described above) were incubated with shaking for 1 wk at 37° C. Fibril formation was assessed by Congo red (Conway et al. 2000b).

insulin = test: Aggregation suppression of DTT-reduced insulin B chains; format: biochemical; conditions: insulin 26 μM, 20 mM DTT, 25° C.
Description: FIG. 22 illustrates that DJ-1 is a redox-dependent molecular chaperone. (A) Aggregation of CS was monitored at 43° C. after addition of either 0.8 μM CS alone (black), or along with 8.0 μM RNase A (purple), 0.5 μM DJ-1 (aqua), 2.0 μM DJ-1 (blue), 4.0 μM DJ-1 (red), or 2.0 μM Hsp27 (green). (B) Aggregation of 0.8 μM CS after 30 min at […] (unfilled bar) is inhibited by 4.0 μM WT DJ-1 (black bar) but not 4.0 μM L166P mutant DJ-1 (gray bar). Data are shown as the mean±SEM and were analyzed by ANOVA with Fisher's post-hoc test. *p<0.05. (C) Aggregation of insulin (26 μM) B chains induced by 20 mM DTT at 25° C. Insulin alone (black) or in the presence of 4.0 μM RNase A (purple), 0.5 μM DJ-1 (aqua), 2.0 μM DJ-1 (blue), 4.0 μM DJ-1 (red), or 2.0 μM Hsp27 (green). […] (gray bar). Further treatment of DTT-reduced DJ-1 with 10 mM H2O2 for 10 min at 4° C. leads to reactivation of CS suppression (hatched bar). Data are shown as the mean±SEM and were analyzed by ANOVA with Fisher's post-hoc test. *p<0.05.
CS aggregation was performed in 40 mM HEPES (pH 7.8), 20 mM potassium hydroxinde, 50 mM potassium chloride, and 10 mM ammonium sulfate, and monitored in a thermostat-controlled fluorescence spectrophotometer with excitation and emission wavelengths at 500 nm and slit widths at 2.5 nm. Insulin aggregation was performed as described (Giasson et al. 2000). […]

αSyn [3] = biological target: T2, αSyn; test: αSyn Congo red-positive fibril formation in vitro; format: biochemical; conditions: 200 μM αSyn, proteins 100 μM, 1 wk at 37° C.
Description: αSyn protofibril and fibril formation assays were performed essentially as described (Uversky et al.). […] For fibril formation, αSyn and chaperone proteins (as described above) were incubated with shaking for 1 wk at 37° C. Fibril formation was assessed by Congo red (Conway et al. 2000b).

citrate synthase (CS) = biological target: T1, citrate synthase (CS); test: Suppression of heat-induced aggregation of citrate synthase (chaperone assay); format: biochemical; conditions: 0.8 μM CS, 43° C.
Description: To test the redox regulation of DJ-1, the inventors assayed chaperone activity in the CS aggregation assay in the presence or absence of the reducing agent DTT. […] (FIG. 22D). […] To further test whether redox regulation might govern DJ-1 chaperone activity, reactivation studies using reduced DJ-1 were performed. DTT-reduced DJ-1 was incubated with H2O2 (10 mM in aggregation buffer for 10 min at 4° C. followed by dialysis against aggregation buffer for 2 h), and subsequently chaperone activity was measured in the CS thermal aggregation assay. […] This was not an indirect effect of residual H2O2 on CS aggregation, as H2O2 treatment of CS increased aggregation (unpublished data).
CS aggregation was performed in 40 mM HEPES (pH 7.8), 20 mM potassium hydroxinde, 50 mM potassium chloride, and 10 mM ammonium sulfate, and monitored in a thermostat-controlled fluorescence spectrophotometer with excitation and emission wavelengths at 500 nm and slit widths at 2.5 nm. Insulin aggregation was performed as described (Giasson et al. 2000). CS, insulin, RNase A, and GST were obtained from Sigma; human Hsp27 was obtained from Stressgen.

Row | Molecule | formation of soluble αSyn protofibrils (αSyn [2]) | aggregation suppression of reduced insulin (insulin) | also measured
1 | NCCc1cc(O)c(O)cc1O [6-OHDA, 6-hydroxydopamine] | – | – | sensitivity of DJ-1 deficient dopamine neurons to toxin [1]: increased sensitivity
2 | C=C(C)[C@H]1CN[C@H](C(=O)O)[C@H]1CC(=O)O [kainate] | – | – | effect of toxin on cyclin E in granule cell cultures (cerebellar granule cells): led to the accumulation of cyclin E
3 | Hsp27: well-described small cytoplasmic chaperone, human Hsp27, from Stressgen; positive control [reference compound] | failed to inhibit | effectively inhibited | –
4 | glutathione S-transferase [GST] | failed to inhibit | – | formation of Congo red-positive αSyn fibrils (αSyn [3]): did not
5 | RNase A: negative control protein, from Sigma (protein, UniProt P61823 27-150, looked up) Ribonuclease pancreatic: KETAAAKFERQHMDSSTSAASSSNYCNQMMKSRNLTKDRCKPVNTFVHESLADVQAVCSQKNVACKNGQTNCYQSYSTMSITDCRETGSSKYPNCAYKTTQANKHIIVACEGNPYVPVHFDASV | – | neither DJ-1 nor the negative control protein RNase A displayed chaperone activity | suppression of heat-induced aggregation of CS (chaperone activity) (citrate synthase (CS)): failed to demonstrate chaperone activity
